Results published in article PMC9603081, “Transcription Factors as Important Regulators of Changes in Behavior through Domestication of Gray Rats: Quantitative Data from RNA Sequencing”.

Experiments:
[1] = target: TBP (TATA-binding protein) (Homo sapiens) (UniProt P20226); assay: EMSA; details: EMSA association kinetics, 0.3 nM TBP, four ODN concentrations; buffer, salt, pH and temperature not in the material
[2] = target: T1, TBP (TATA-binding protein) (Homo sapiens, UniProt P20226 1-339); assay: EMSA; EMSA association kinetics, 0.3 nM TBP, four ODN concentrations; buffer, salt, pH and temperature not in the material; details: protein: recombinant; label: 32P both strands; blunt
T1 sequence (P20226 whole entry): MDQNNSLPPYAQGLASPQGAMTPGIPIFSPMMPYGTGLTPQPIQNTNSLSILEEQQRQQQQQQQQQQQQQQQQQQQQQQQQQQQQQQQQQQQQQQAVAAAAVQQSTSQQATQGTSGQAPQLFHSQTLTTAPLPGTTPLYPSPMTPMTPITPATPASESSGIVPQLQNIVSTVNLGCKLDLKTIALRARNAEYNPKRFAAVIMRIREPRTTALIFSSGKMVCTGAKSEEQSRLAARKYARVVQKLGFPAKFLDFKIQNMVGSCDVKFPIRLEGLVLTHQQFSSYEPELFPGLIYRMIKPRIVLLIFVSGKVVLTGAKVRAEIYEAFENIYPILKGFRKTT

[3] = target: T1, TBP (TATA-binding protein); assay: EMSA; association kinetics, 0.3 nM TBP; Table S2 in vitro -ln(KD) 15.05 disagrees; EMSA association kinetics, 0.3 nM TBP, four ODN concentrations; buffer, salt, pH and temperature not in the material; details: protein: recombinant; label: 32P both strands; blunt

TBP (TATA-binding protein) (Homo sapiens), sequence (P20226 whole entry): as above

For “TCGAAAAATAAAACAAAATAAAACAT (double strand) [ASCL3 rs1049743008 T-45c]”, the Kd [1] was 17 nM.

B1: HBB rs33980857 T-29A (dsDNA)
DNA 1: CAGGGCTGGGCAAAAAAGTCAGGGCA
DNA 2: TGCCCTGACTTTTTTGCCCAGCCCTG
B1 gave a Kd [2] of 110 nM.

B2: HBD rs35518301 A-31G (dsDNA)
DNA 1: ACAGGACCAGCGTAAAAGGCAGGGCA
DNA 2: TGCCCTGCCTTTTACGCTGGTCCTGT
B2 showed a Kd [2] of 99.8 nM.

B3: HBB rs281864525 A-25C (dsDNA)
DNA 1: CAGGGCTGGGCATAAACGTCAGGGCA
DNA 2: TGCCCTGACGTTTATGCCCAGCCCTG
B3 gave a Kd [2] of 150 nM.

B4: HBB rs33980857 T-29C (dsDNA)
DNA 1: CAGGGCTGGGCACAAAAGTCAGGGCA
DNA 2: TGCCCTGACTTTTGTGCCCAGCCCTG
With B4 the Kd [2] was 140 nM.

B5: HBB rs63750953 del -25AA (dsDNA)
DNA 1: CCAGGGCTGGGCATAAGTCAGGGCAG
DNA 2: CTGCCCTGACTTATGCCCAGCCCTGG
Molecule B5 has a Kd [2] of 150 nM.

B6: HBB rs34500389 C-32T (dsDNA)
DNA 1: CAGGGCTGGGTATAAAAGTCAGGGCA
DNA 2: TGCCCTGACTTTTATACCCAGCCCTG
B6 showed a Kd [2] of 31.9 nM.

B7: HBB rs33980857 T-29G (dsDNA)
DNA 1: CAGGGCTGGGCAGAAAAGTCAGGGCA
DNA 2: TGCCCTGACTTTTCTGCCCAGCCCTG
B7 showed a Kd [2] of 110 nM.

B8: HBB rs34598529 A-28C (dsDNA)
DNA 1: CAGGGCTGGGCATACAAGTCAGGGCA
DNA 2: TGCCCTGACTTGTATGCCCAGCCCTG
Work on B8 yielded a Kd [2] of 499 nM.

B9: HBB WT (dsDNA)
DNA 1: CAGGGCTGGGCATAAAAGTCAGGGCA
DNA 2: TGCCCTGACTTTTATGCCCAGCCCTG
B9 gave a Kd [2] of 50.1 nM.

B10: HBB rs34598529 A-28G (row 2) (dsDNA)
DNA 1: CAGGGCTGGGCATAGAAGTCAGGGCA
DNA 2: TGCCCTGACTTCTATGCCCAGCCCTG
B10 was tested, and the Kd [2] was 557 nM.

B11: HBB rs33931746 A-27T (dsDNA)
DNA 1: CAGGGCTGGGCATATAAGTCAGGGCA
DNA 2: TGCCCTGACTTATATGCCCAGCCCTG
B11 showed a Kd [2] of 59.9 nM.

B12: HBD WT (dsDNA)
DNA 1: ACAGGACCAGCATAAAAGGCAGGGCA
DNA 2: TGCCCTGCCTTTTATGCTGGTCCTGT
For B12, the Kd [2] was 70.3 nM.

B13: HBD rs34166473 T-30C (dsDNA)
DNA 1: ACAGGACCAGCACAAAAGGCAGGGCA
DNA 2: TGCCCTGCCTTTTGTGCTGGTCCTGT
B13 gave a Kd [2] of 170 nM.

B14: HBB rs34598529 A-28G (row 10) (dsDNA)
DNA 1: CAGGGCTGGGCATGAAAGTCAGGGCA
DNA 2: TGCCCTGACTTTCATGCCCAGCCCTG
Molecule B14 has a Kd [2] of 499 nM.

B15: ASCL3 WT (dsDNA)
DNA 1: TCGAAAAATAAAATAAAATAAAACAT
DNA 2: ATGTTTTATTTTATTTTATTTTTCGA
With B15 the Kd [3] was 12 nM.
